Residue numbers refer to the chain shown, from its start. Like-named read-outs stand apart in the source and are kept apart here.
B1: FUSE-563 (h5A1-FA11 Fc) (Fc fusion)
chain: EVQLLESGGGLVQPGGSLKLSCTASGYTNRLKCMGWFRQAPGKEREEIATISTGTGNTYYADSVKGRFTISQDRSKNTLYLQMNSLRAEDTAVYYCAADVRPDGTTCHYNSWGQGTLVTVSS
notes: VHH-Fc format; not shown: Fc of the VHH-Fc format
B2: FUSE-597 (h5A1-HK2 Fc) (Fc fusion)
chain: EVQLLESGGGLVQPGGSLRLSCAASGYTNRLKCMGWFRQAPGKERELASISTGTGNTYYADSVKGRFTISRDGSKNTLYLQMNSLRAEDTAVYYCAADVRPDGTTCHYNSRGQGTLVTVSS
notes: as for B1
B3: FUSE-524 (h5A1-HK1_Fc) (Fc fusion)
chain: B2 chain with G73N, R86K
notes: VHH-Fc format; also called humanized clone 5A1-HK1; 5A1-H1; not shown: Fc of the VHH-Fc format
B4: FUSE-569 (h5A1-FA17 Fc) (Fc fusion)
chain: B2 chain with E1Q, L5V, A23S, G73N, E88D, R111W, L116Q
notes: as for B1
B5: FUSE-598 (h5A1-HK6 Fc) (Fc fusion)
chain: B2 chain with R71Q
notes: as for B1
B6: FUSE-489 (h5A1-Ac13) (bispecific antibody, human IgG1, lambda, L234A L235A)
heavy: EVQLVESGGGLVQPGGSLRLSCAASGFTFSTYAMNWVRQAPGKGLEWVARIRSKYNNYATYYADSVKDRFTISRDDSKNTLYLQMNSLRAEDTAVYYCARHGNFGNSYVSWFAYWGQGTMVTVSSASTKGPSVFPLAPSSKSTSGGTAALGCLVKDYFPEPVTVSWNSGALTSGVHTFPAVLQSSGLYSLSSVVTVPSSSLGTQTYICNVNHKPSNTKVDKKVEPKSCDKTHTCPPCPAPEAAGGPSVFLFPPKPKDTLMISRTPEVTCVVVDVSHEDPEVKFNWYVDGVEVHNAKTKPREEQYNSTYRVVSVLTVLHQDWLNGKEYKCKVSNKALPAPIEKTISKAKGQPREPQVYTLPPSREEMTKNQVSLSCAVKGFYPSDIAVEWESNGQPENNYKTTPPVLDSDGSFFLVSKLTVDKSRWQQGNVFSCSVMHEALHNRFTQKSLSLSPGK
chain: QVQLQESGGGLVQPGGSLRLSCTASGYTNRLKCMGWVRQAPGKEREEVATISTGTGNTYYADSVKGRFTISRDNSKNTLYLQMNSLRAEDTAMYYCAADVRPDGTTCHYNSGGQGTQVTVSSEPKSSDKTHTCPPCPAPEAAGGPSVFLFPPKPKDTLMISRTPEVTCVVVDVSHEDPEVKFNWYVDGVEVHNAKTKPREEQYNSTYRVVSVLTVLHQDWLNGKEYKCKVSNKALPAPIEKTISKAKGQPREPQVYTLPPSREEMTKNQVSLWCLVKGFYPSDIAVEWESNGQPENNYKTTPPVLDSDGSFFLYSKLTVDKSRWQQGNVFSCSVMHEALHNHYTQKSLSLSPGK
light: QAVVTQEPSLTVSPGGTVTLTCRSSTGAVTTSNYANWVQQKPGQAPRGLIGGTNKRAPGTPARFSGSLLGGKAALTLSGVQPEDEAEYYCALWYSNLWVFGGGTKLTVLGQPKAAPSVTLFPPSSEELQANKATLVCLISDFYPGAVTVAWKADSSPVKAGVETTTPSKQSNNKYAASSYLSLTPEQWKSHRSYSCQVTHEGSTVEKTVAPTECSGGGGSGGGGSGGGGSGGGGSQVQLQESGGGLVQPGGSLRLSCTASGYTNRLKCMGWVRQAPGKEREEVATISTGTGNTYYADSVKGRFTISRDNSKNTLYLQMNSLRAEDTAMYYCAADVRPDGTTCHYNSGGQGTQVTVSS
notes: Format Ac13
B7: FUSE-498 (h5A1-Ac13) (bispecific antibody, human IgG1, lambda, L234A L235A)
heavy: B6 heavy
chain: B6 chain with Q1E, Q5V, V37F, V48I, I70F, M93V
light: B6 light with Q236E, Q240V, V272F, V283I, I305F, M328V
notes: Format Ac13
B8: FUSE-497 (h5A1-Ac13) (bispecific antibody, human IgG1, lambda, L234A L235A)
heavy: B6 heavy
chain: EVQLLESGGGLVPRGGSLRLSCTASGYTNRLKCMGWFRQAPGKEREEIATISTGTGNTYYADSVKGRFTISRDNSRNTLYLQMKTLRAEDTAVYYCAADVRPDGTTCHYNSWGQGTQVTVSSEPKSSDKTHTCPPCPAPEAAGGPSVFLFPPKPKDTLMISRTPEVTCVVVDVSHEDPEVKFNWYVDGVEVHNAKTKPREEQYNSTYRVVSVLTVLHQDWLNGKEYKCKVSNKALPAPIEKTISKAKGQPREPQVYTLPPSREEMTKNQVSLWCLVKGFYPSDIAVEWESNGQPENNYKTTPPVLDSDGSFFLYSKLTVDKSRWQQGNVFSCSVMHEALHNHYTQKSLSLSPGK
light: QAVVTQEPSLTVSPGGTVTLTCRSSTGAVTTSNYANWVQQKPGQAPRGLIGGTNKRAPGTPARFSGSLLGGKAALTLSGVQPEDEAEYYCALWYSNLWVFGGGTKLTVLGQPKAAPSVTLFPPSSEELQANKATLVCLISDFYPGAVTVAWKADSSPVKAGVETTTPSKQSNNKYAASSYLSLTPEQWKSHRSYSCQVTHEGSTVEKTVAPTECSGGGGSGGGGSGGGGSGGGGSEVQLLESGGGLVPRGGSLRLSCTASGYTNRLKCMGWFRQAPGKEREEIATISTGTGNTYYADSVKGRFTISRDNSRNTLYLQMKTLRAEDTAVYYCAADVRPDGTTCHYNSWGQGTQVTVSS
notes: Format Ac13
B9: FUSE-570 (h5A1-FA18 Fc) (Fc fusion)
chain: QVQLVESGGGLVQPGGSLRLSCSASGYTNRLKCMGWFRQAPGKEREEIATISSGTGNTYYADSVKGRFTFSRDNSKNTLYLQMNSLRAEDTGMYYCAADVRPDGTTCHYNSGGQGTQVTVSS
notes: as for B1

Assays:
[1] = molecular target: T1, human ROR1 (Receptor Tyrosine Kinase-Like Orphan Receptor 1) on the cell surface (human, UniProt Q01973 30-937); test: flow cytometry, B16-F10 cells expressing human ROR1 (high density)
T1 construct: whole, on cells; engineered into B16-F10 (high density) and LS174T (low density) cells; also called B16-F10-ROR1-H; LS174T-ROR1-L
T1 sequence (Q01973 30-937): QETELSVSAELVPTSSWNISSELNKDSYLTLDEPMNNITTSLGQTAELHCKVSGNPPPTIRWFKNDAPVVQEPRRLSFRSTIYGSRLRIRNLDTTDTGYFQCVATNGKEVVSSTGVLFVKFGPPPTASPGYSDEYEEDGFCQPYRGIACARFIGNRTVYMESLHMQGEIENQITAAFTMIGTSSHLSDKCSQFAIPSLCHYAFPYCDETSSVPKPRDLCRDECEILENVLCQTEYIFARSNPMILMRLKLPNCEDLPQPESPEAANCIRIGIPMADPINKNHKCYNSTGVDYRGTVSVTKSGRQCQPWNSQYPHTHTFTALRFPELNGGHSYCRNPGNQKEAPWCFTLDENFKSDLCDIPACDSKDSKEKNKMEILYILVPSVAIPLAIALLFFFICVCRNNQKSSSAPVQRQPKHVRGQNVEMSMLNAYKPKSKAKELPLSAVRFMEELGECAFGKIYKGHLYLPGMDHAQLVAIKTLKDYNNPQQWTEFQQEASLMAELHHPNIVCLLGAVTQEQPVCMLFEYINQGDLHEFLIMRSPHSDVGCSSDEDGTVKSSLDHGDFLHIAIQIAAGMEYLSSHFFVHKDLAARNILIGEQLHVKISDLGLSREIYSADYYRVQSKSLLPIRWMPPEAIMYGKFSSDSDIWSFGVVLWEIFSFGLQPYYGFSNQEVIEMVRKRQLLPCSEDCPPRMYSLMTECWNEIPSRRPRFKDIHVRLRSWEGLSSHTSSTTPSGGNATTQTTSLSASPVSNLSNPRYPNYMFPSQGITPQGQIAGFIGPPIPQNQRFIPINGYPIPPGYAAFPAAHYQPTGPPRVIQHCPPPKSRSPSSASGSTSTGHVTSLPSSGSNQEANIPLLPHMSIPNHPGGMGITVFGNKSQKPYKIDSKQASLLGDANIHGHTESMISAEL
Method: (§1) As shown in the tables below, mouse B16-F10 melanoma (Tables 9A-9F) or LS174T human colorectal adenocarcinoma (Tables 9G-9H) cells genetically engineered to express human ROR1 at high and low densities, respectively, were stained for flow cytometric analysis with 100 nM of humanized variants of the ROR1 specific VHHs, 5A1 or 2A11 in either a VHH-Fc format or the Ac13 format shown in FIG. 1. Cells were analyzed on a flow cytometer after the primary test article was fluorescently tagged with a goat anti human IgG-Fc specific PE secondary antibody. The positive control used was PE conjugated anti-human ROR1 clone 2A2. Negative controls included a PE labeled mouse IgG Ab, the secondary antibody only, the combination of a Hen Egg Lysozyme (HEL) specific antibody plus goat anti human IgG-Fc specific PE and Fluorescence Minus One (FMO). Other controls included the non-humanized version of 5A1-Fc (FUSE179), 2A11-Fc (FUSE112) and 5A1-Ac13 (FUSE488). Humanized variants were generated using computational design (FUSE489, FUSE497-498, FUSE563, FUSE569-570, and BI-HU9-VHH11-33), a yeast display library in which mutations were inserted into the Vernier zone residues of human framework indicated in GenBank accession number M99660 (FUSE524-525, FUSE589, FUSE597-598, FUSE537, FUSE661-662, BI-HU9-HK and BI-HU9-HK-1), and a second yeast display library in which mutations were inserted into the Vernier zone residues of human framework indicated in GenBank accession number AWH66715 and amino acid position 103 within CDR3 (FUSE559, FUSE590-596, BI-HU9-VH9-1, FUSE654-655 and FUSE661-662. Affinity matured variants of FUSE559 were also generated using computational design (F22158101-21; Table 9H).

[2] = molecular target: T1, human ROR1 (Receptor Tyrosine …); test: as above; remark: listed apart in the source
Method: as §1

[3] = molecular target: T1, human ROR1 (Receptor Tyrosine …); test: as above; remark: listed apart in the source
Method: as §1

[4] = molecular target: T1, human ROR1 (Receptor Tyrosine …); test: flow cytometry on B16-F10 cells engineered to express human ROR1, secondary antibody to the IgG1 Fc
Method: As shown in FIG. 15 the apparent binding affinity (EC50-binding) of the ROR1 specific VHH-Fc incorporating either the non humanized VHH clone 5A1 (FUSE179; black circle), the humanized clone 5A1-FA9-HK1 (FUSE559; black square) or the humanized clone 5A1-HK1 (FUSE524; black triangle) was calculated. Shown is a non-linear x-y plot of binding to B16-F10 cell engineered to express human ROR1 relative to the concentration of test article used for staining. A Hen Egg Lysozyme (HEL)-specific antibody was used as the negative isotype control. Binding was measured via flow cytometry using a fluorescently labeled secondary antibody specific for the Fc domain of IgG1. A summary table of EC50s and maximum MFI is shown beneath under the graph.

Row | Binder | MFI [1] | MFI [3] | also measured
1 | B1 | 388 | – | –
2 | B2 | – | – | MFI [2]: 10100
3 | B3 | – | 6470 | EC50 [4]: 2.74 nM; Max MFI [4]: 7080 MFI
4 | B4 | 590 | – | –
5 | B5 | – | – | MFI [2]: 9560
6 | B6 | – | 1060 | –
7 | B7 | – | 1360 | –
8 | B8 | – | 811 | –
9 | B9 | 583 | – | –

Source: US20250313627A1 (FUSE BIOTHERAPEUTICS, published 2025)
